Reference: PMC3035606, “Structural Basis of Response Regulator Dephosphorylation by Rap Phosphatases” (PLoS Biology, 2011)
Positions count from the first letter of the chain named. Numbers in names are those of the source. Like-named read-outs stand apart in the source and are kept apart here.

T1: Spo0F~P (radiolabeled phosphorylated Spo0F-His) (B. subtilis) (UniProt P06628)
T1 sequence (chain, phosphoaspartate-54 (32P)): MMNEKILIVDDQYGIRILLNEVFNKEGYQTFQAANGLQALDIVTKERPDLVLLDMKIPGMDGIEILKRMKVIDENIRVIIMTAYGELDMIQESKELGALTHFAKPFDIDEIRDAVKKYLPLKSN

T2: RapJ (B. subtilis), O34327
T2 chain: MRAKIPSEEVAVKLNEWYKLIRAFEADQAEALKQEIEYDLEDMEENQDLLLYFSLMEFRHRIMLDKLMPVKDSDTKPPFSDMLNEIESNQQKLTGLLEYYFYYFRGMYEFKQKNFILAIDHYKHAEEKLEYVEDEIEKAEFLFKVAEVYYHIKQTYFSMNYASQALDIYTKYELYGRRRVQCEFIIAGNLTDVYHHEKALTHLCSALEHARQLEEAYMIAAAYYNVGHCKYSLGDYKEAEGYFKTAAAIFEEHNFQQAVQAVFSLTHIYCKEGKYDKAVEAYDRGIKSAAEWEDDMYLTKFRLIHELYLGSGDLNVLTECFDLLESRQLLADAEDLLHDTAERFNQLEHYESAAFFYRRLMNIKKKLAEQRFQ

B1: RapF-H50L (enzyme)
chain: MTGVISSSSIGEKINEWYMYIRRFSIPDAEYLRREIKQELDQMEEDQDLLLYYSLMEFRHNLMLEYLEPLEKMRIEEQPRLSDLLLEIDKKQARLTGLLEYYFNFFRGMYELDQREYLSAIKFFKKAESKLIFVKDRIEKAEFFFKMSESYYYMKQTYFSMDYARQAYEIYKEHEAYNIRLLQCHSLFATNFLDLKQYEDAISHFQKAYSMAEAEKQPQLMGRTLYNIGLCKNSQSQYEDAIPYFKRAIAVFEESNILPSLPQAYFLITQIHYKLGKIDKAHEYHSKGMAYSQKAGDVIYLSEFEFLKSLYLSGPDEEAIQGFFDFLESKMLYADLEDFAIDVAKYYHERKNFQKASAYFLKVEQVRQLIQGGVSLYEIEV
B2: RapF (natural protein)
chain: B1 chain with L50H
B3: RapJ, O34327 1-373 (enzyme)
chain: T2 chain
B4: Spo0F (natural protein, B. subtilis)
chain: GSMMNEKILIVDDQYGIRILLNEVFNKEGYQTFQAANGLQALDIVTKERPDLVLLDMKIPGMDGIEILKRMKVIDENIRVIIMTAYGELDMIQESKELGALTHFAKPFDIDEIRDAVKKYLPLKSN
notes: two heterologous N-terminal residues (Gly-Ser) derived from the thrombin cleavage signal; Spo0F, B. subtilis strain 168, residues 1-124; The methods name the vector pETDuet-1 but purify over glutathione resin and remove a GST tag; also called Spo0FA; Spo0FB; source: E. coli BL21(DE3), purified (glutathione resin, thrombin, Source 15Q and HiTrap Heparin flow-through, Superdex 200); …
B5: selenomethionyl Spo0F-D54E (natural protein, B. subtilis)
chain: B4 chain with D56E
modifications: selenomethionyl (selenomethionine derivatized)
notes: two heterologous N-terminal residues (Gly-Ser) derived from the thrombin cleavage signal; purified in an identical manner to Spo0F; Spo0F, B. subtilis strain 168, residues 1-124, with D54E; Used for SAD phasing; PDB 3Q15 holds the parent (wild-type Spo0F); source: E. coli BL21(DE3), purified as Spo0F (buffer D with 120 mM MgCl2); not shown: GST, N-terminal, cleaved
B6: RapH-E137A (enzyme)
chain: GSMSQAIPSSRVGVKINEWYKMIRQFSVPDAEILKAEVEQDIQQMEEDQDLLIYYSLMCFRHQLMLDYLEPGKTYGNRPTVTELLETIETPQKKLTGLLKYYSLFFRGMYEFDQKEYVEAIGYYREAEKELPFVSDDIAKAEFHFKVAEAYYHMKQTHVSMYHILQALDIYQNHPLYSIRTIQSLFVIAGNYDDFKHYDKALPHLEAALELAMDIQNDRFIAISLLNIANSYDRSGDDQMAVEHFQKAAKVSREKVPDLLPKVLFGLSWTLCKAGQTQKAFQFIEEGLDHITARSHKFYKELFLFLQAVYKETVDERKIHDLLSYFEKKNLHAYIEACARSAAAVFESSCHFEQAAAFYRKVLKAQEDILKGECLYAY
B7: RapH-F58A (enzyme)
chain: B6 chain with F60A, A139E
B8: RapH-D134A (enzyme)
chain: B6 chain with D136A, A139E
B9: RapH-Y175A (enzyme)
chain: B6 chain with A139E, Y177A
B10: RapH (enzyme, B. subtilis)
chain: B6 chain with A139E
notes: two heterologous N-terminal residues (Gly-Ser) derived from the thrombin cleavage signal; RapH, B. subtilis strain 168, residues 1-376 (MW theor 44.1 kDa); Dimer in the crystal and in solution; also called RapHA; RapHB; source: E. coli BL21, purified (glutathione resin, thrombin, Source 15Q, Superdex 200; dialysis instead of gel filtration for the phosphatase and phosphotransfer assays); not …
B11: RapH-L50A (enzyme)
chain: B6 chain with L52A, A139E

What was measured:
[1] = target: T1, Spo0F~P (radiolabeled phosphorylated Spo0F-His) (B. subtilis)
[2] = target: T2, RapJ (B. subtilis), O34327; assay: SEC; size exclusion chromatography with gel filtration standards; experimental against theoretical molecular weight; conditions: remark: other sources report otherwise
RapH [3] = target: B10; assay: crystal structure; vapor diffusion at 20°C; 7.5 mg/ml RapH and 3.5 mg/ml Spo0F in 20 mM Tris-HCl (pH 8.0), 100 mM KCl, 2.5 mM DTT, 5 mM MgCl2; well 20% PEG 3350, 200 mM lithium sulphate, 100 mM Bis-Tris (pH 6.0); refined to 2.20 Å; conditions: both partners purified
RapH [4] = target: B10; assay: crystal structure; crystals of native RapH with selenomethionyl Spo0F(D54E), as the native crystals but Bis-Tris at pH 5.8; SAD phasing, initial model at 2.70 Å; isomorphous to the native crystals; conditions: both partners purified
[5] = target: T1, Spo0F~P (radiolabeled phosphorylated Spo0F-His) (B. subtilis); remark: listed apart in the source
[6] = target: T1, Spo0F~P (radiolabeled phosphorylated Spo0F-His) (B. subtilis); remark: listed apart in the source
[7] = target: the molecule itself; assay: crystal structure; vapor diffusion at 20°C; 7.5 mg/ml RapH and 3.5 mg/ml Spo0F in 20 mM Tris-HCl (pH 8.0), 100 mM KCl, 2.5 mM DTT, 5 mM MgCl2; well 20% PEG 3350, 200 mM lithium sulphate, 100 mM Bis-Tris (pH 6.0); refined to 2.20 Å

Binder: B1
Spo0F~P remaining after 30 min, in vitro phosphatase assay (26 uM RapF); RapF-H50L dephosphorylates Spo0F (% of Spo0F~P remaining) [1]: 16

Binder: B2
Spo0F~P remaining after 30 min, in vitro phosphatase assay (26 uM RapF); wild-type RapF does not dephosphorylate Spo0F (% of Spo0F~P remaining) [1]: 54

Binder: B3
stoichiometry N [2]: 2

Binder: B4
binding result (RapH [3]): binds

Binder: B5
binding result (RapH [4]): binds

Binder: B6
Spo0F~P remaining after 40 min, in vitro phosphatase assay (wild-type control 7%) (% of Spo0F~P remaining) [5]: 15

Binder: B7
Spo0F~P remaining after 30 min, in vitro phosphatase assay (wild-type control 3%) (% of Spo0F~P remaining) [6]: 28

Binder: B8
Spo0F~P remaining after 30 min, in vitro phosphatase assay (wild-type control 3%) (% of Spo0F~P remaining) [5]: 13

Binder: B9
Spo0F~P remaining after 30 min, in vitro phosphatase assay (wild-type control 3%) (% of Spo0F~P remaining) [5]: 54

Binder: B10
stoichiometry N [7]: 2

Binder: B11
Spo0F~P remaining after 30 min, in vitro phosphatase assay (wild-type control 13%) (% of Spo0F~P remaining) [6]: 26
